Assay results taken from a protein production outcome set (Wang et al. 2014).

Experiment: label from the status in PepcDB records

| Sequence | protein production |
| --- | --- |
| METISKEFKSKVSLFWEAFNKNDFESAKTQCNQMKKSFSDEANPHYLLGIIYFEEKRFDKSIIELKLALKKDSERKLGGYIYYVIGLNYSKNTFSNMENLNSIYDIELARNAFESALTYENFNESNITELSQIYRNKFKLIQLFQKGLKKFPTKTSFYIKLSAIYKKNGNISERESLLLDAKENIKSFHILFELGELYLEKSQYKCSREHFYLAEKLREGSGLEFAVQVMIGNTHVNEGNPNLANEYYINAFHKEKNSCNFWFGLFGILASSAETSFADLKNILEEMEVTSQLTIEEWYGEMPLYYGSNYFSFDFPIDEKHLINRLNLFKKQQRDTDILGKIELIKASLYEFSSEDTKYIKCLKSAINYFSQHSYDFIFNKLAARYDYLLSHLQEEGKSVNTLINEIVDYLEDDYSFRKEYIEYLPTIVTILFEEKKHKKIIEIKNIFTEKQIDKADIWFHVGYAFNELGRPKESKYAYECNIKINGECTSTHNNLALLLENEGKNSDAVAMFQKALMINVDDEKLQSNLQNALDKQKAKSLLTYKNEAIDKSFVGAVGLLKSETFFSMETLLNFIDRSKKENSFNDGILSIQDEMFPDLLRTNLVKSLELKNDWLIKNYIALTEEIDEYGIPYYQVNPYLEPEIVKLKRMTVESELPKEWTEGIGNITIFKLDELDYFSIKHKISKINKKFKPLVMRDFNELIFNHLVGNRKAVVVLSGSFVELLLTYYCEKKRIKAVEYTCKDSAKPKKKKLYDCVLFDLISFIEEKRIFGNDFFLLSNLSRVYRNFIHPGVELKNSLDKSKSDLCFISSLEILKKII | failed |
| MAKKKKEILFCDYYEDWVETYKVGAIEDVTLNKYYVAARQLRDICPKLLMSDFSRKDYQLIMNEYGKTHEKQTAKDFHHHIKAAILDAYHDGLLKSDPTYRAVIKGKEPGKKKLEHHHHHH | not failed |
| MEKRQFMKMKEKLKRACFEFAVSNRYLYNLAKRILDSSPKLQKIKEFLIPKEFLIPAANLSNVFEPETSFQNSGRFFKKIKTCFNGGLPPENLDQDLAIINQRWNVNNEGYQIFSHRKILGPFLVRGRRLVHGEVRRYVDPIFHLQREFNASVVRILNRTTEDLRVLSSKNDAIEGKLNTVEEKISGTVRKDEFKEFKDKIMINHDKLQTDFYELKNSLTKNLEELSSTVESIKAKIDTAEEKISGTDIHTSDYYFLFEEKFRGSRELVKARLRRYIPYFKGCRRVLDIGCGRGEFLELCKEEGIESIGVDINEDMIKFCEGKFNVVKSDAIEYLKSLPDKYLDGVMISHFVEHLDPERLFELLSLCYSKMKYSSYIVIESPNPTSLYSLINFYIDPTHKKPVHPETLKFILEYLGFRDVKIEFFEECEELTKLAKIDSNTVSEEVIRVINENIEKLNRILFGPQDYAIIAKK | failed |
| MKVRADFAFEKVARDWFVRWSKGRSEKYAGQVMRNFERWVFPAIGNLDIRQVRTADVVGCLRVMEARGIVDTLRKTKNSLKMVFAFAVGSGMMEINPVAQIGSGVFERLEHHHHHH | not failed |
| MSLVMSGEKMKVIIVEDEFLAQQELSWLINTHSQMEIVGSFDDGLDVLKFLQHNKVDAIFLDINIPSLDGVLLAQNISQFAHKPFIVFITAWKEHAVEAFELEAFDYILKPYQESRIINMLQKLTTAWEQQNNAAEGHHHHHH | not failed |
| MSIKVGDVFKYERRFTEEEVFEFANITGDKGRHHMEYDENGRLMVHGLLTASIGTKVGEELHYIARELVSEFIRPVFAGDTITCELTLTNVEQMEGYKKVSIESVYRNQNEKTVLVGTSYGVIRG | failed |
| MTKRFKLKISRILSFKSCRLKDPSSLPFNPVSSSLRRTSPLVNSSADVTTVPQRRRSSFRLHVLTVFGCGRSSTPLDVDLRNSPVLSPPQTPTFQWESEGKWHVIAQVTEEEYETPRRKIYNGGSEKDNRRRLKKKEKSNSRRRGSISSAEEETDRESLLPSSTNLSPEYSSSELPRVTRRPRQLLKKAVIEEESESSSPPPSPARLSSFVQRLMPCTMAAAVMVEGVAVVKKSEDPYEDFKGSMMEMIVEKKMFEVAELEQLLSCFLSLNAKRHHRAIVRAFSEIWVALFSGGSGGGRRSSSFSSVRLSDYDEC | failed |
| MADTHPLVTVETIVLVGLGGFAGSNLRYFVGLFFPGLQGTLLVNVCGSFALGVLVYEGLQVGALASETKLAASTGFISSFTTYSTFAVETVLTPEWAVANVVGSYALGFAGVLVGREVVRLFAGGGQ | failed |
| MSRTEGSHEAEQDLTMIVGTYTSGDSKGLYSFRFNEENGTATALSEAEVENPSYLVPSADGKFIYAVSEFSNEQAAANAFAFNKEEGTFRLLNTQKTGGEDPCYIITNGSNVVTANYSGGSISVFPIDKDGSLLPASEVVKFKGSGADKERQEKPHLHCVRITPDGKYLFADDLGTDQIHKFIVNPNAKADNEDVFLKEGSPASYKVEAGSGPRHLTFAPNGSYAYLINELSGTVIAFEYNDGELKEIQTIAADTVGAKGSGDIHISPDGKFLYASNRLKADGLAIFSIHPENGMLTKVGYQLTGIHPRNFIITPNGKYLLVACRDSNVIQVYERDTDTGLLTDIRKDIKVDKPVCIKFVPLEHHHHHH | not failed |
| MQSLHGNCLIAYARHKYILTMVNGEYRYFNGGDLVFADASQIRVDKCVENFVFVSRDTLSLFLPMLKEEALNLHAHKKVSSLLVHHCSRDIPVFQEVAQLSQNKNLRYAEMLRKRALIFALLSVFLEDEHFIPLLLNVLQPNMRTRVCTVINNNIAHEWTLARIASELLMSPSLLKKKLREEETSYSQLLTECRMQRALQLIVIHGFSIKRVAVSCGYHSVSYFIYVFRNYYGMTPTEYQERSAQRLSNRDSAASIVAQGNFYGTDRSAEGIRL | failed |
| MRLNKLFILYSLFGILMASCIKDEAPNAEADITGISFEEDVLASARFNLNPSYNDNLQAYPILVKVKEGTPLNKLSPLFELTPGATISPESGSEHDFSDGKRVKYTVTSENKAWQRVYSIGVREQSVSDIPNEFHFEDIRLINGINPKYKYQEFYEEQDGLELTWASGNEGFNWAASSSATENYPTSQYDNGKNGKCAKLETRLTGSLGAMVGMPIAAGNLFIGEFDMTNALTSPLKATHFGTPFCYKPSRLKGWYKYKAGERFYENGGYTDRKDVMNIYAIFYEGESYNEAGEVTEVILDGNLPNQNYEHPSMVALALISNPHETDDWEAFDIPFDYQRYGKEIDETKLAKGKYKLSIIFASSKNGATFEGAPGSTLLVDDVELIFE | failed |
| MWKHVKQVDPEIYEVLVNELKRQEYGLELIASENFASLAVIETMGSMLTNKYAEGYPKKRYYGGCEWVDRAEERAIERAKRLFGAKFANVQPHSGSQANMAVYLALAQPGDTIMGMSLSHGGHLTHGAPVNFSGKIFKVVPYGVNLETETIDYDEVRRLALEHKPKIIVAGGSAYARIIDFKRFREIADEVGAYLMVDMAHFAGLVAAGIHPNPLEYAHVVTSTTHKTLRGPRGGLILTNDPEIAKAVDKTIFPGIQGGPLMHVIAAKAVCFKEAMTEEFKEYQKQVVKNAKKMAEEFQKRGYRIVSGGTDTHLFLVDLTPKDITGKAAEKALESCGITVNKNTIPNEKRSPFVASGIRIGTPAVTTRGMKEEEMEEIAEMIDLVLSNVIDENGTVKPEVREEVSKKVRELCERFPLYRDKIEGVEI | not failed |
| MVKDKQKAIFSENLNSYIAKSEKTQLEIAKSIGVSPQTFNTWCKGIAIPRMGKVQALADYFNINKSDLIEDKKLNIDTVPIESGYTIPVLGRVAAGYGKEAVEEVIGQIEISPSMAAKGDYFGLLIKGDSMIPTLYDGDTVIVERTDDAESGDLVIALVNGSDATCKRLQKYAEGIALIPQNPVYEPMRFTESEIDTTPVKILGKVVEMRRKFLEHHHHHH | not failed |
| MKSLATDMTEGNVSKHLIKFAIPLILGNLFQLTYNASDSIIVGRFVGKNALAAVGIANPIMNIVMFFIVGICLGASVLMSEYYGAGNVKKLRREISTTVIAGFIFTVLIIIICVIFTEPILGLVKTPKEIIPEAAIYLRIIFISLIFTFFYNIYAAALRSIGDSKNPLLFLMISAVLNVVMDIVFVVWLKMGVAGSAIATSVAEMMSCVFCIVYVHFKIPILKFSFKDMVIDKGLLRSTVNYSWATAMQQTCLYVGKFMVQGAVNPLGVNSIAAFNAVNRVDDFAFAPEQSISNAMTTFLAQNRGANKYKRIKKGFLTGMKLETLYWCILVGIVYLGSTAIMKLFVSGSEVKVISIGSYYLKLMAFFYLLPSWTNGVQGYFRGMGDMKITLRSTFSQIVGRVAFSYILAPRIGMVGIAFSCLGGWIVMLAYEVPCLIKYRRNFNNKLSESSI | failed |
